# Assay results published in US20190002500A1, “NOVEL a4B7 PEPTIDE DIMER ANTAGONISTS” (Protagonist Therapeutics, Inc., priority 2013, published 2019).
# Where a SMILES comes first, the peptide text is derived from it. Bridges are numbered along the chain shown (N, C = ends). Where no end group is shown, it is not given here. [ ]: non-standard residue; d: D form. NMeR = CN[C@@H](CCCNC(=N)N)C(=O)O; Pen = CC(C)(S)[C@H](N)C(=O)O
# How the values were obtained:
# FIG. 3 = test: FIG. 3
# From the text: Table printed on a drawing sheet, FIG. 3
# First reader's note: The sequence is split into one residue per column (positions 4-11 plus one unnumbered column), and SEQ ID 39 is printed twice.
# [1] = Simulated Intestinal Fluid (SIF) Stability Assay; format: in vitro ADME; conditions: for stability in simulated intestinal fluids (SIF): substitution of Cys with Pen, compared to SEQ ID NO: 46 with Cys
# Protocol: Simulated Intestinal Fluid (SIF) Stability Assay
# Studies were carried out in simulated intestinal fluid (SIF) to evaluate gastric stability of the dimer molecules of the instant invention. SIF was prepared by adding 6.8 g of monobasic potassium phosphate and 10.0 g of pancreatin to 1.0 L of water. After dissolution, the pH was adjusted to 6.8 using NaOH. DMSO stocks (2 mM) were first prepared for the test compounds. Aliquots of the DMSO solutions were dosed into 6 individual tubes, each containing 0.5 mL of SIF, which had been pre-warmed to 37° C.
# The final test compound concentration was 20 μM. The vials were kept in a benchtop Thermomixer® for the duration of the experiment. At each timepoint (0, 5, 10, 20, 40, and 60 minutes), 1.0 mL of acetonitrile containing 1% formic acid was added to one vial to terminate the reaction. Samples were stored at 4° C. until the end of the experiment. After the final timepoint was sampled, the tubes were mixed and then centrifuged at 3,000 rpm for 10 minutes. Aliquots of the supernatant were removed, diluted 1:1 into distilled water containing internal standard, and analyzed by LCMS/MS. Percent remaining at each timepoint was calculated based on the peak area response ratio of test to compound to internal standard. Time 0 was set to 100%, and all later timepoints were calculated relative to time 0. Half-lives were calculated by fitting to a first-order exponential decay equation using Graphpad. A small sampling of the results of these studies is provided and discussed in connection FIG. 3, above.
Molecule,"SIF Stability (Half-Life, Min) (FIG. 3)",stability in simulated intestinal fluids (SIF) [1],further results
"SEQ ID NO: 46: integrin antagonist homodimer of monomer subunit SEQ ID NO: 46 (Cys, N-terminally dimerized); N(alpha)Methylated and non-methylated variations (CRSDTLC; disulfide 1-7; not fully specified (residue 2); also: homodimer linked at N-termini) [listing 1 of 2 here]",73 min,,
"SEQ ID NO: 55: integrin antagonist homodimer of monomer subunit SEQ ID NO: 55, Cys substituted with Penicillamine (Pen) (C[NMeR]SDTL[Pen][dK]; disulfide 1-7; also: homodimer, link not given here)",,increased stability significantly,
"SEQ ID NO: 46: integrin antagonist homodimer of monomer subunit SEQ ID NO: 46 (Cys, N-terminally dimerized); N(alpha)Methylated and non-methylated variations (CRSDTLC; disulfide 1-7; not fully specified (residue 2); also: homodimer linked at N-termini) [listing 2 of 2 here]",,,"half-life in SIF ([1]; substitution of arginine with N-Me-Arg, N(alpha)Methylated vs non-methylated variation): increased half-life substantially"
"CC(=O)N[C@H]1CSSC[C@@H](C(N)=O)NC(=O)[C@H](CC(C)C)NC(=O)[C@H]([C@@H](C)O)NC(=O)[C@H](CC(=O)O)NC(=O)[C@H](CO)NC(=O)[C@H](CCCNC(=N)N)NC1=O [compound 39, Ac-C R S D T L C-NH2] (Ac-CRSDTLC-NH2; disulfide 1-7)",<1 min,,
"SEQ ID NO: 74: integrin antagonist homodimer of monomer subunit SEQ ID NO: 74, Cys substituted with Penicillamine (Pen) (C[NMeR]SDTL[Pen]E[dK]; disulfide 1-7; also: homodimer, link not given here)",,increased stability significantly,
